T1: recombinant human GPC2 (R&D Systems) (human, UniProt Q8N158 24-554, limits assumed, labelled with Dylight488 or Dylight650 in the flow cytometry assays; unlabelled in the ELISA)
T1 construct: extracellular domain; also called hGPC2; human Glypican-2
T1 sequence (looked up): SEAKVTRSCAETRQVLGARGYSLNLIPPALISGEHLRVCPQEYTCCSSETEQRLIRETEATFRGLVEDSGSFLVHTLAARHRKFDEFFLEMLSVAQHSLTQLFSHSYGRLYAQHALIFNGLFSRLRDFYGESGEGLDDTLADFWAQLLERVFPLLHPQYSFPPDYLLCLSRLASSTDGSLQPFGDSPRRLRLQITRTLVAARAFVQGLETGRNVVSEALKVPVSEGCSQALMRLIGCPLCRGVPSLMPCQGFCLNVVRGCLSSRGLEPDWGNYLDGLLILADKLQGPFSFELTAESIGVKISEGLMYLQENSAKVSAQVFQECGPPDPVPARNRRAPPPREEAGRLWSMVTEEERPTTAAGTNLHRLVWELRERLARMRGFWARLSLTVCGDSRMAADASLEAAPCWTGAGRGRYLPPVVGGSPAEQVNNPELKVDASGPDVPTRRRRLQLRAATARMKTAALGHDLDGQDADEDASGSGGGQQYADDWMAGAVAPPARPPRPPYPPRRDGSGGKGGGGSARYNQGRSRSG

T2: recombinant murine GPC2 (R&D Systems) (mouse, UniProt Q8BKV1 22-556, limits assumed, labelled with Dylight488 in the flow cytometry assay of FIG. 9B; unlabelled in the ELISA)
T2 construct: Bought recombinant protein; also called mGPC2; mouse GPC2
T2 sequence (looked up): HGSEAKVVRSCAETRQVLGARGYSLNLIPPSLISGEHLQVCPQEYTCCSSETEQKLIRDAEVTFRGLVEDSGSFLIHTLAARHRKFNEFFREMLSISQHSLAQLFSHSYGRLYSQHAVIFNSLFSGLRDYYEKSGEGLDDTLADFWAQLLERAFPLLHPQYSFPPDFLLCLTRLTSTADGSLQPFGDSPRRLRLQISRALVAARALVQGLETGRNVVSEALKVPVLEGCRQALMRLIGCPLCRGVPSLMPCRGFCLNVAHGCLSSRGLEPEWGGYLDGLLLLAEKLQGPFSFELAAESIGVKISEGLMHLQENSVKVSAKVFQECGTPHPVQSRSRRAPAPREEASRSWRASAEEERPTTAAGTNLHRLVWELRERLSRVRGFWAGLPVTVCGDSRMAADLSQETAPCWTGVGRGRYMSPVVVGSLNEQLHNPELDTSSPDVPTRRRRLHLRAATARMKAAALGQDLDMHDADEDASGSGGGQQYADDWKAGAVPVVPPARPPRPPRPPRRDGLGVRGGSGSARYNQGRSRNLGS


Tests used:
[1] = target: T1, recombinant human GPC2 (R&D Systems); experiment: flow cytometry, CAR T cells stained with fluorescently labelled recombinant GPC2
Excerpt: Primary human T cells were isolated from healthy donors using the RosetteSep Human T cell Enrichment kit (Stem Cell Technologies) using buffy coats were derived from the Stanford Blood Center and processed according to the manufacturer's protocol using Lymphoprep density gradient medium and SepMate-50 tubes. Isolated T cells were cryopreserved in CryoStor CS10 cryopreservation medium (Stem Cell Technologies). Cryopreserved T cells were thawed and activated with Human T-Expander CD3/CD28 Dynabeads (Gibco) at a 3:1 beads: cell ratio in AIM-V media supplemented with 5% FBS, 10 mM HEPES, 2 mM 1-glutamine, 100 U/mL penicillin, and 100 μg/mL streptomycin (Gibco) and with 100 IU/ml of recombinant IL-2 (Preprotech). T cells were transduced with retroviral vector on days 2 and 3 post activation and anti-CD3/CD28 beads were removed on day 5. CAR T-cells were maintained at 0.3-1×10⁶ cells per mL in T cell medium with IL2. CAR expression was assessed by Flow Cytometry after incubation with soluble, recombinant, human GPC2 (R&D systems) labelled with Dylight488 or Dylight650. CAR T cells were used for in vitro assays or transferred into mice on day 10 post activation.
Data was collected with an LSR Fortessa X-20 (BD Bioscience) and analyzed using the FlowJo software. Cells were harvested, washed twice with FACS buffer (PBS supplemented with 2% FBS and 0.4% 0.5 M EDTA) and stained for 30 min in the dark on ice. Cells were washed 3 times with FACS buffer after each incubation step. Cells were gated on viable cells and singlet discrimination (FSC-A/FSC-H) was performed before assessment of antigen expression. Semiquantitative assessment of GPC2 antigen density in molecules per cell was estimated using the BD Quantibrite Kit per the manufacturer's protocol.

[2] = target: T2, recombinant murine GPC2 (R&D Systems); experiment: flow cytometry, CAR T cells stained with Dylight488-labelled murine GPC2
[3] = target: T2, recombinant murine GPC2 (R&D Systems); experiment: ELISA, antigen coated on plate, anti-human Fc-HRP detection
Description: (§1) Fully human GPC2.19-IgG1 antibody was transiently expressed in 293 FreeStyle cells. Antibody was isolated from culture supernatant using protein A beads (Fisher). Isolated antibody was washed using PBS and Amicon […] filter columns. Binding of GPC2.19-IgG1 to GPC2 antigen was measured via ELISA. Recombinant human and mouse GPC2 antigens were purchased from R&D Systems, dry milk was from BioRad. All other chemicals were biological grade. High absorbance 96-well ELISA plates were coated with antigen overnight using […] stock solution per well at 2 μg/ml. Experiments were performed at 4° C. Antigen coated plates were blocked using 3% milk in PBS and 0.5% TWEEN® 20 for 2 h. Blocked plates were incubated with one of the tested primary antibodies for 1 hour, washed 5 times (BioTek plate washer) and incubated with anti-human Fc-HRP (Sigma) as the secondary antibody for 1 hour. Secondary antibody was washed five times, the HRP substrate TMB (Sigma) was added and plate was incubated for 3 minutes. TMB oxidation was stopped with 2.5 M sulfuric acid. Plates' absorbance was measured on plate reader (BioRad) at 415 nm.

[4] = target: T1, recombinant human GPC2 (R&D Systems); experiment: as above
Description: as §1

Row | binding result [1] | Binder | also measured
1 | binds | GPC2.19VLVH.28H-28TM.28z (other, also called GPC2.28TM.28z CAR; GPC2.19 CAR with CD28 hinge-transmembrane domains and CD28 costimulatory domain) DIQMTQSPSSLSASIGDRVTITCQASQDISDYLNWYQQKPGKAPKLLIYDASNLETGVPSRFSGSGSGTDFTFTISSLQPEDVATYYCQQYDNLPITFGQGTKLEIKRGGGGSGGGASGGGGSQLQLQESGPGLVKPSETLSLTCTVSGGSISSSSYYWSWIRQPPGKGLEWIGSIYYSGSTYYNPSLKSRVTISVDTSKNQFSLKLSSVTAADTAVYYCARRVSGHPFDPWGQGTLVTVSSAAAIEVMYPPPYLDNEKSNGTIIHVKGKHLCPSPLFPGPSKPFWVLVVVGGVLACYSLLVTVAFIIFWVRSKRSRLLHSDYMNMTPRRPGPTRKHYQPYAPPRDFAAYRSRVKFSRSADAPAYQQGQNQLYNELNLGRREEYDVLDKRRGRDPEMGGKPRRKNPQEGLYNELQKDKMAEAYSEIGMKGERRRGKGHDGLYQGLSTATKDTYDALHMQALPPR | –
2 | binds | GPC2.27 CAR in VL-L-VH orientation with CD8a hinge-transmembrane domain and 41BBz signaling domain (other, also called GPC2.27 VL-L-VH CAR) EIVMTQSPATLSASVGDRVTIACRASQTISRYLNWYQQKPGKAPKLLIYAASSLQSGVSSRFSGSGSGTEFTLTISSLQPEDFATYFCQQTYSPPITFGQGTRLEIKRGGGGSGGGASGGGGSEVQLVESGPGLVKPSETLSLTCAVSGYSISSGYYWGWIRQPPGKGLEWIGSIYHSGSTYYNPSLKSRVTISVDTSKNQFSLKLSSVTAADTAVYYCASLPSRGGFDYWGQGTLVTVSSATTTPAPRPPTPAPTIASQPLSLRPEACRPAAGGAVHTRGLDFACDIYIWAPLAGTCGVLLLSLVITLYCKRGRKKLLYIFKQPFMRPVQTTQEEDGCSCRFPEEEEGGCELRVKFSRSADAPAYKQGQNQLYNELNLGRREEYDVLDKRRGRDPEMGGKPRRKNPQEGLYNELQKDKMAEAYSEIGMKGERRRGKGHDGLYQGLSTATKDTYDALHMQALPPR | –
3 | binds | GPC2.19VLVH.8aH-8aTM.41BBz (other, also called GPC2.19 CAR; GPC2.8aTM.41BBz CAR) DIQMTQSPSSLSASIGDRVTITCQASQDISDYLNWYQQKPGKAPKLLIYDASNLETGVPSRFSGSGSGTDFTFTISSLQPEDVATYYCQQYDNLPITFGQGTKLEIKRGGGGSGGGASGGGGSQLQLQESGPGLVKPSETLSLTCTVSGGSISSSSYYWSWIRQPPGKGLEWIGSIYYSGSTYYNPSLKSRVTISVDTSKNQFSLKLSSVTAADTAVYYCARRVSGHPFDPWGQGTLVTVSSATTTPAPRPPTPAPTIASQPLSLRPEACRPAAGGAVHTRGLDFACDIYIWAPLAGTCGVLLLSLVITLYCKRGRKKLLYIFKQPFMRPVQTTQEEDGCSCRFPEEEEGGCELRVKFSRSADAPAYKQGQNQLYNELNLGRREEYDVLDKRRGRDPEMGGKPRRKNPQEGLYNELQKDKMAEAYSEIGMKGERRRGKGHDGLYQGLSTATKDTYDALHMQALPPR | binding result [2]: binds
4 | binds | GPC2.19 CAR in VH-L-VL orientation with CD8a hinge-transmembrane domain and 41BBz signaling domain (other, also called GPC2.19 VH-L-VL CAR) QLQLQESGPGLVKPSETLSLTCTVSGGSISSSSYYWSWIRQPPGKGLEWIGSIYYSGSTYYNPSLKSRVTISVDTSKNQFSLKLSSVTAADTAVYYCARRVSGHPFDPWGQGTLVTVSSGGGGSGGGASGGGGSDIQMTQSPSSLSASIGDRVTITCQASQDISDYLNWYQQKPGKAPKLLIYDASNLETGVPSRFSGSGSGTDFTFTISSLQPEDVATYYCQQYDNLPITFGQGTKLEIKRATTTPAPRPPTPAPTIASQPLSLRPEACRPAAGGAVHTRGLDFACDIYIWAPLAGTCGVLLLSLVITLYCKRGRKKLLYIFKQPFMRPVQTTQEEDGCSCRFPEEEEGGCELRVKFSRSADAPAYKQGQNQLYNELNLGRREEYDVLDKRRGRDPEMGGKPRRKNPQEGLYNELQKDKMAEAYSEIGMKGERRRGKGHDGLYQGLSTATKDTYDALHMQALPPR | –
5 | binds | GPC2.27 CAR in VH-L-VL orientation with CD8a hinge-transmembrane domain and 41BBz signaling domain (other, also called GPC2.27 VH-L-VL CAR) EVQLVESGPGLVKPSETLSLTCAVSGYSISSGYYWGWIRQPPGKGLEWIGSIYHSGSTYYNPSLKSRVTISVDTSKNQFSLKLSSVTAADTAVYYCASLPSRGGFDYWGQGTLVTVSSGGGGSGGGASGGGGSEIVMTQSPATLSASVGDRVTIACRASQTISRYLNWYQQKPGKAPKLLIYAASSLQSGVSSRFSGSGSGTEFTLTISSLQPEDFATYFCQQTYSPPITFGQGTRLEIKRATTTPAPRPPTPAPTIASQPLSLRPEACRPAAGGAVHTRGLDFACDIYIWAPLAGTCGVLLLSLVITLYCKRGRKKLLYIFKQPFMRPVQTTQEEDGCSCRFPEEEEGGCELRVKFSRSADAPAYKQGQNQLYNELNLGRREEYDVLDKRRGRDPEMGGKPRRKNPQEGLYNELQKDKMAEAYSEIGMKGERRRGKGHDGLYQGLSTATKDTYDALHMQALPPR | –
6 | – | GPC2.19-IgG1 (antibody, V domains shown, also called GPC2.IgG1; fully human GPC2.19-IgG1 antibody) VH: QLQLQESGPGLVKPSETLSLTCTVSGGSISSSSYYWSWIRQPPGKGLEWIGSIYYSGSTYYNPSLKSRVTISVDTSKNQFSLKLSSVTAADTAVYYCARRVSGHPFDPWGQGTLVTVSS VL: DIQMTQSPSSLSASIGDRVTITCQASQDISDYLNWYQQKPGKAPKLLIYDASNLETGVPSRFSGSGSGTDFTFTISSLQPEDVATYYCQQYDNLPITFGQGTKLEIKR | EC50 [3]: ~1 nM; EC50 [4]: ~1 nM
7 | binds | GPC2.19VLVH.28H-28TM.41BBz (other, also called GPC2.19 CAR with CD28 hinge-transmembrane domains and 41BB costimulatory domain) DIQMTQSPSSLSASIGDRVTITCQASQDISDYLNWYQQKPGKAPKLLIYDASNLETGVPSRFSGSGSGTDFTFTISSLQPEDVATYYCQQYDNLPITFGQGTKLEIKRGGGGSGGGASGGGGSQLQLQESGPGLVKPSETLSLTCTVSGGSISSSSYYWSWIRQPPGKGLEWIGSIYYSGSTYYNPSLKSRVTISVDTSKNQFSLKLSSVTAADTAVYYCARRVSGHPFDPWGQGTLVTVSSAAAIEVMYPPPYLDNEKSNGTIIHVKGKHLCPSPLFPGPSKPFWVLVVVGGVLACYSLLVTVAFIIFWVKRGRKKLLYIFKQPFMRPVQTTQEEDGCSCRFPEEEEGGCELRVKFSRSADAPAYKQGQNQLYNELNLGRREEYDVLDKRRGRDPEMGGKPRRKNPQEGLYNELQKDKMAEAYSEIGMKGERRRGKGHDGLYQGLSTATKDTYDALHMQALPPR | –

From patent publication US20260209384A1 (Stanford University, published 2026)
